The values that follow come from publication PMC11670933.

The assay addresses truncated human NOTCH2^ΔERA-TurboID (human). The assay can be described thus: proximity labelling; TurboID fusions stably expressed in HT-29; 500 uM biotin for one hour; streptavidin beads; label-free quantitative mass spectrometry (DIA, Q-Exactive HF X), TurboID alone as control.

In the case of “endogenous human NOTCH2 (NICD2) (natural protein)”, the Log2FC NICD2RA-vs-NICD2 (log2 fold change) is -2.03 and the percent of the NOTCH2 recovered (against NICD2-TurboID) turned out to be 13%.
